To fix the notation:
B1: QAB373 (bispecific antibody, human IgG1, kappa, L234A L235A)
heavy 1: QVQLVQSGAEVKKPGASVKVSCKASGYTFTNFYIHWVRQAPGQGLEWMGSIYPNYGITAYNQKFKDRVTMTVDTSTSTAYMELRSLRSDDTAVYYCARGYSYAMDYWGQGTTVTVSSASVAAPSVFIFPPSDEQLKSGTASVVCLLNNFYPREAKVQWKVDNALQSGNSQESVTEQDSKDSTYSLSSTLTLSKADYEKHKVYACEVTHQGLSSPVTKSFNRGECDKTHTCPPCPAPEAAGGPSVFLFPPKPKDTLMISRTPEVTCVVVDVSHEDPEVKFNWYVDGVEVHNAKTKPREEQYNSTYRVVSVLTVLHQDWLNGKEYKCKVSNKALAAPIEKTISKAKGQPREPQVYTLPPSREEMTKNQVSLTCLVKGFYPSDIAVEWESNGQPENNYKTTPPVLDSDGSFFLTSKLTVDKSRWQQGNVFSCSVMHEALHNHYTQKSLSLSPGK
light 1: DIQMTQSPSSVSASVGDRVTITCSASQGISGDLNWYQQKPGKAPKLLIYHTSQLHSDVPSRFSGSGSGTDFTLTISSLQPEDFATYYCQGYSKDLLTFGGGTKLEIKSSASTKGPSVFPLAPSSKSTSGGTAALGCLVKDYFPEPVTVSWNSGALTSGVHTFPAVLQSSGLYSLSSVVTVPSSSLGTQTYICNVNHKPSNTKVDKRVEPKSC
heavy 2: EVQLVQSGAEVKKPGESLKISCKGSGYAFTNYLIEWVRQMPGKGLEWMGVINPGSGGTNYNEKFKGQVTISADKSISTAYLQWSSLKASDTAMYYCARWRGEGYYAYFDVWGQGTTVTVSSASTKGPSVFPLAPSSKSTSGGTAALGCLVKDYFPEPVTVSWNSGALTSGVHTFPAVLQSSGLYSLSSVVTVPSSSLGTQTYICNVNHKPSNTKVDKRVEPKSCDKTHTCPPCPAPEAAGGPSVFLFPPKPKDTLMISRTPEVTCVVVDVSHEDPEVKFNWYVDGVEVHNAKTKPREEQYNSTYRVVSVLTVLHQDWLNGKEYKCKVSNKALAAPIEKTISKAKGQPREPQVYTLPPSREEMTKNQVSLYCLVKGFYPSDIAVEWESNGQPENNYKTTPPVLDSDGSFFLYSKLTVDKSRWQQGNVFSCSVMHEALHNHYTQKSLSLSPGK
light 2: not shown
B2: RIB426 (bispecific antibody, human IgG1, kappa, L234A L235A)
heavy 1: B1 heavy 1 with S50R
light 1: B1 light 1 with L54R
heavy 2: B1 heavy 2
light 2: not shown
B3: GQM289 (bispecific antibody, human IgG1, kappa, lambda, L234A L235A)
heavy 1: EVQLLESGGGLVQPGGSLRLSCAASGFTFSINAMTWVRQAPGKGLEWVSTISGSGFSTYYADSLKGRFTISRDNSKNTLYLQMNSLRAEDTAVYYCAKEVYGDYWGQGTLVTVSSASTKGPSVFPLAPSSKSTSGGTAALGCLVKDYFPEPVTVSWNSGALTSGVHTFPAVLQSSGLYSLSSVVTVPSSSLGTQTYICNVNHKPSNTKVDKRVEPKSCDKTHTCPPCPAPEAAGGPSVFLFPPKPKDTLMISRTPEVTCVVVDVSHEDPEVKFNWYVDGVEVHNAKTKPREEQYNSTYRVVSVLTVLHQDWLNGKEYKCKVSNKALAAPIEKTISKAKGQPREPQVYTLPPSREEMTKNQVSLTCLVKGFYPSDIAVEWESNGQPENNYKTTPPVLDSDGSFFLTSKLTVDKSRWQQGNVFSCSVMHEALHNHYTQKSLSLSPGK
light 1: not shown
heavy 2: B1 heavy 2
light 2: not shown
B4: JLI141 (bispecific antibody, human IgG1, lambda, L234A L235A)
heavy 1: B3 heavy 1
light: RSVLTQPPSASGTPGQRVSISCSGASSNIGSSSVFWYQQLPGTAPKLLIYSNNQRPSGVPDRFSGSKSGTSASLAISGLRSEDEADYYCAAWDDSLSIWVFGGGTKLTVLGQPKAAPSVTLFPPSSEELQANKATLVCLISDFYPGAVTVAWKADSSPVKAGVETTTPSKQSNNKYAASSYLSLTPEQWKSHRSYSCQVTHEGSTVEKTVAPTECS
heavy 2: AIRLTQSPSSFSASTGDRVTITCKASQSVDYGGGNFHLRPRDLISNINVIVLELKGSETTFMCEYADETATIVEFLNRWITFSQSIISTLTPTSSSTKKTQLQLEHLLLDLQMILNGINNYKNPKLTRMLTFKFYMPKKATELKHLQCLEEELKPLEEVLNLAQSKGGGGDSYMNWYQQKPGKAPKLLIYAASNLESGVPSRFSGSGSGTDFTLTISSLQSEDFATYYCQQSNEDPYTFGGGTKVEIKGGGGSGGGGSGGGGSEVQLVQSGAEVKKPGESLKISCKGSGYAFTNYLIEWVRQMPGKGLEWMGVINPGSGGTNYNEKFKGQVTISADKSISTAYLQWSSLKASDTAMYYCARWRGEGYYAYFDVWGQGTTVTVSSGGGGSGGGGSEVQLLESGGGLVQPGGSLRLSCAASGFTFSINAMTWVRQAPGKGLEWVSTISGSGFSTYYADSLKGRFTISRDNSKNTLYLQMNSLRAEDTAVYYCAKEVYGDYWGQGTLVTVSSASTKGPSVFPLAPSSKSTSGGTAALGCLVKDYFPEPVTVSWNSGALTSGVHTFPAVLQSSGLYSLSSVVTVPSSSLGTQTYICNVNHKPSNTKVDKRVEPKSCDKTHTCPPCPAPEAAGGPSVFLFPPKPKDTLMISRTPEVTCVVVDVSHEDPEVKFNWYVDGVEVHNAKTKPREEQYNSTYRVVSVLTVLHQDWLNGKEYKCKVSNKALAAPIEKTISKAKGQPREPQVYTLPPSREEMTKNQVSLYCLVKGFYPSDIAVEWESNGQPENNYKTTPPVLDSDGSFFLYSKLTVDKSRWQQGNVFSCSVMHEALHNHYTQKSLSLSPGK
B5: MDS446 (bispecific antibody, human IgG1, kappa, L234A L235A)
heavy 1: QVQLVQSGAEVKKPGASVKVSCKASGYTFTNFYIHWVRQAPGQGLEWMGSIYPNYGITAYNQKFKDRVTMTVDTSTSTAYMELRSLRSDDTAVYYCARGYSYAMDYWGQGTTVTVSSASTKGPSVFPLAPSSKSTSGGTAALGCLVKDYFPEPVTVSWNSGALTSGVHTFPAVLQSSGLYSLSSVVTVPSSSLGTQTYICNVNHKPSNTKVDKRVEPKSCDKTHTCPPCPAPEAAGGPSVFLFPPKPKDTLMISRTPEVTCVVVDVSHEDPEVKFNWYVDGVEVHNAKTKPREEQYNSTYRVVSVLTVLHQDWLNGKEYKCKVSNKALAAPIEKTISKAKGQPREPQVYTLPPSREEMTKNQVSLTCLVKGFYPSDIAVEWESNGQPENNYKTTPPVLDSDGSFFLTSKLTVDKSRWQQGNVFSCSVMHEALHNHYTQKSLSLSPGK
light: DIQMTQSPSSVSASVGDRVTITCSASQGISGDLNWYQQKPGKAPKLLIYHTSQLHSDVPSRFSGSGSGTDFTLTISSLQPEDFATYYCQGYSKDLLTFGGGTKLEIKRTVAAPSVFIFPPSDEQLKSGTASVVCLLNNFYPREAKVQWKVDNALQSGNSQESVTEQDSKDSTYSLSSTLTLSKADYEKHKVYACEVTHQGLSSPVTKSFNRGEC
heavy 2: AIRLTQSPSSFSASTGDRVTITCKASQSVDYGGGNFHLRPRDLISNINVIVLELKGSETTFMCEYADETATIVEFLNRWITFSQSIISTLTPTSSSTKKTQLQLEHLLLDLQMILNGINNYKNPKLTRMLTFKFYMPKKATELKHLQCLEEELKPLEEVLNLAQSKGGGGDSYMNWYQQKPGKAPKLLIYAASNLESGVPSRFSGSGSGTDFTLTISSLQSEDFATYYCQQSNEDPYTFGGGTKVEIKGGGGSGGGGSGGGGSEVQLVQSGAEVKKPGESLKISCKGSGYAFTNYLIEWVRQMPGKGLEWMGVINPGSGGTNYNEKFKGQVTISADKSISTAYLQWSSLKASDTAMYYCARWRGEGYYAYFDVWGQGTTVTVSSGGGGSGGGGSQVQLVQSGAEVKKPGASVKVSCKASGYTFTNFYIHWVRQAPGQGLEWMGSIYPNYGITAYNQKFKDRVTMTVDTSTSTAYMELRSLRSDDTAVYYCARGYSYAMDYWGQGTTVTVSSASTKGPSVFPLAPSSKSTSGGTAALGCLVKDYFPEPVTVSWNSGALTSGVHTFPAVLQSSGLYSLSSVVTVPSSSLGTQTYICNVNHKPSNTKVDKRVEPKSCDKTHTCPPCPAPEAAGGPSVFLFPPKPKDTLMISRTPEVTCVVVDVSHEDPEVKFNWYVDGVEVHNAKTKPREEQYNSTYRVVSVLTVLHQDWLNGKEYKCKVSNKALAAPIEKTISKAKGQPREPQVYTLPPSREEMTKNQVSLYCLVKGFYPSDIAVEWESNGQPENNYKTTPPVLDSDGSFFLYSKLTVDKSRWQQGNVFSCSVMHEALHNHYTQKSLSLSPGK
B6: TMU471 (bispecific antibody, human IgG1, kappa, L234A L235A)
heavy 1: B5 heavy 1 with S50R
light: B5 light with L54R
heavy 2: B5 heavy 2 with S444R

The values below come from US20260207767A1 (ANAVEON, published 2026).

Changes are numbered by the printed parent chain.

For the assay, the target named is T1, IL-2R CD122-CD132 on Jurkat-PD1+CD122+ cells (UniProt P14784 27-551; P31785 23-369).
T1 sequence (looked up) 1: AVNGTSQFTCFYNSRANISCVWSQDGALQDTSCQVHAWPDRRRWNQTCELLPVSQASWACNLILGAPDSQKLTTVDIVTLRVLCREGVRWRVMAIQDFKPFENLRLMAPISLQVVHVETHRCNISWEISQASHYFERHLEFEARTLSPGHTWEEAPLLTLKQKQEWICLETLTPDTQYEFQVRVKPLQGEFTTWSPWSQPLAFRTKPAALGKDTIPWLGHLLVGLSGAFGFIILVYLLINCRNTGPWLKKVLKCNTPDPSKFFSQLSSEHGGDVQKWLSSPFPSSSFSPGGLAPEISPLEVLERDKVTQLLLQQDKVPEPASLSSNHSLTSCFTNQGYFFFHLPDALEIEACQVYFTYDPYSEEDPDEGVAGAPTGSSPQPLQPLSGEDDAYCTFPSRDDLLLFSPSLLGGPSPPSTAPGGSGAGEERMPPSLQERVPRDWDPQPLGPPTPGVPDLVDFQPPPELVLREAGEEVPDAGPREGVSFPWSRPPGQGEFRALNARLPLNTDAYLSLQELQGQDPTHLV
T1 sequence (looked up) 2: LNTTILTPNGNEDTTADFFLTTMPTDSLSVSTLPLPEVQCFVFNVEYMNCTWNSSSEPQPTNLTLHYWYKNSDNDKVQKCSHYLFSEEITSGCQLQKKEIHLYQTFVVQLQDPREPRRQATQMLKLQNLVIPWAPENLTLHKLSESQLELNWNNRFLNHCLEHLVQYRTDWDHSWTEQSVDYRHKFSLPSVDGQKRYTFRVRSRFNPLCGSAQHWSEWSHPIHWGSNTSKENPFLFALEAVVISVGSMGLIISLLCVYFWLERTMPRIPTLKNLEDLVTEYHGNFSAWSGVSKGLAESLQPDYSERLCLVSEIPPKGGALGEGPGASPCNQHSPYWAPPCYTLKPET
Briefly: cell-based or functional assay.
B1: the “EC50 value for pSTAT5 induction, Jurkat-PD-1+CD122+ cells” value (from here on “EC50 value for pSTAT5 induction”) was 70 pM.

B2: the “EC50 value for pSTAT5 induction” value was 0.12 nM.

As to B3, the “EC50 value for pSTAT5 induction” value came to 0.22 nM.

Take B4: the “EC50 value for pSTAT5 induction” value was 0.2 nM.

As to B5, the “EC50 value for pSTAT5 induction” value was 60 pM.

With B6, the “EC50 value for pSTAT5 induction” value amounted to 60 pM.
